Test results reported in paper doi:10.1101/2024.06.03.594717.

Key:
[1] = target: Tag-free FBXO22-SKP1 complex (human) (UniProt Q8NEZ5); assay: SEC-MALS; Superdex 200 10/300 GL, 20 mM Tris-HCl pH 8.0, 150 mM NaCl, 0.25 mM TCEP, room temperature; tag-free FBXO22-SKP1, His-BACH1-BTB and their mixture
GST-FBXO22-SKP1 (human) = GST-FBXO22-SKP1 (human) (UniProt Q8NEZ5); assay: BLI; Octet Red 96, anti-GST probes loaded with 200 nM GST-FBXO22-SKP1, BACH1-BTB as analyte, 30°C; 25 mM HEPES pH 7.4, 100 mM NaCl, 1 mM TCEP, 0.1% Tween-20, 0.05 mg/mL BSA; Kd from steady-state equilibrium
Chain of GST-FBXO22-SKP1 (human) (Q8NEZ5 whole entry, chain 1 of 2): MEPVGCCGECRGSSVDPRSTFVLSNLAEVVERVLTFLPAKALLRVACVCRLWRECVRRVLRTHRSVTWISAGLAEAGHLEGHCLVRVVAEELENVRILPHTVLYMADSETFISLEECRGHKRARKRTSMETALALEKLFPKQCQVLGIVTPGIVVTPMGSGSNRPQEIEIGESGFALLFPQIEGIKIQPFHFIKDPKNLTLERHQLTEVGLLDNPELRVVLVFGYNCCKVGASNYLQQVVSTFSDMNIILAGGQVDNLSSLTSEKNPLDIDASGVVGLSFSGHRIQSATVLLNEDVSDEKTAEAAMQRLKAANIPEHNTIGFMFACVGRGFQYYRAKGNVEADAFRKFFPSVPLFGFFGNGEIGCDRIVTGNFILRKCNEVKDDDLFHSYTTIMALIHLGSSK
Chain of GST-FBXO22-SKP1 (human) (P63208 whole entry, chain 2 of 2, further chain): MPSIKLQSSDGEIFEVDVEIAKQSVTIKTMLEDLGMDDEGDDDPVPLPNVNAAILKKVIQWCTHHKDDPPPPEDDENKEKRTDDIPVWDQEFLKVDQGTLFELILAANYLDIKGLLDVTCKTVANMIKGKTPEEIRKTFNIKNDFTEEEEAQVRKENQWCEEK

Chain of Tag-free FBXO22-SKP1 complex (human) (Q8NEZ5 whole entry, chain 1 of 2): as the sequence (Q8NEZ5 whole entry, chain 1 of 2) above
Chain of Tag-free FBXO22-SKP1 complex (human) (P63208 whole entry, chain 2 of 2, further chain): as the sequence (P63208 whole entry, chain 2 of 2, further chain) above
Chain of His-BACH1-BTB (O14867 7-128): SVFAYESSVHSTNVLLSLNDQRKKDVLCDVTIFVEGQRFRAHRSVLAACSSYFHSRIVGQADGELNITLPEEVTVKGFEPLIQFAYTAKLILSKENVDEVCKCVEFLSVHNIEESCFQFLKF
Chain of BACH1 BTB domain (O14867 7-128): as above

His-BACH1-BTB (from UniProt O14867 7-128) (domain or fragment)
stoichiometry N (FBXO22-SKP1 per BACH1 BTB dimer) [1]: 1

BACH1 BTB domain (from UniProt O14867 7-128) (domain or fragment)
Kd (GST-FBXO22-SKP1 (human)): 90 nM
